In US20070086956A1, “Method for accelerating the rate of mucociliary clearance” (BAYER AKTIENGESELLSCHAFT, priority 1998, published 2007):
Where two headings read alike, the source gives them in different places.

How the values were obtained:
[1] = test system: guinea pig tracheal epithelial cells; assay: Short circuit current (Isc) in cultured guinea pig tracheal epithelial (GPTE) cells; format: cell-based; settings: 50 ug/mL; over a 30 minute period; FIG. 23
Procedure: (§1) The aim of this study was to investigate the effect of Bikunin (1-170) (See Example 17) on Isc on GPTE cells in vitro. GPTE cells were seeded onto 1.2 cm diameter, 0.4 um pore size Snapwell™ inserts (Costar UK). Cells were grown to confluence and mounted in modified Ussing chambers 2-4 days after placement on air-liquid interface. Inserts were immersed in Krebs buffer (KBR) solution and bubbled with 95% O2/5% CO2 warmed to 370 C.
After a 20 minute equilibration period, transepithelial potential difference was then clamped to 0 mV using a WPI EVC 4000 voltage clamp. Ag/AgCl electrodes were used to monitor Isc. Once a stable baseline was achieved (typically 20-30 mins), cells were treated with amiloride (30 uM). Once a response to amiloride was obtained, it was washed out with KBR solution. After return to baseline and equilibration, Bikunin (1-170) described in Example 17 (10 to 50 ug/mL) or PBS was added. 30 minutes following agent treatment amiloride (30 uM) was added.

[2] = test system: human bronchial epithelial cell (HBE); assay: Short circuit current (Isc) in cultured human bronchial epithelial (HBE) cells, Ussing chamber; format: cell-based; settings: for sodium current: over a 90 minute period, FIG. 17
Procedure: Tertiary HBE cell monolayer grown to confluence were mounted in modified Ussing chambers, immersed in Krebs buffer (KBR) solution and bubbled with 95% O2/5% CO2 warmed to 37 C.
Cells were left to equilibrate for 20 minutes before calibrating for background noise and fluid resistance. Transepithelial potential difference was then clamped to 0 mV using a WPI EVC 4000 voltage clamp. Ag/AgCl electrodes were used to monitor Isc. […] Once a response to amiloride was seen, it was washed out with KBR solution. […] 90 minutes following agent treatment, amiloride (10 uM) was added. Once the current was stable forskolin (10 uM) and then bumetanide (100 uM) was added.
Tertiary HBE cell monolayers grown to confluence were mounted in modified Ussing chambers, immersed in Krebs buffer (KBR) solution and bubbled with 95% O2/5% CO2 warmed to 37 C.
Cells were left to equilibrate for 20 minutes before calibrating for background noise and fluid resistance. Transepithelial potential difference was then clamped to 0 mV using a WPI EVC 4000 voltage clamp. Ag/AgCI electrodes were used to monitor Isc. […] Once a response to amiloride was seen, it was washed out with KBR solution. […] 90 minutes following agent treatment, amiloride (10 uM) was added.

[3] = test system: human CF bronchial epithelial cells; assay: Short circuit current (Isc) in cultured human cystic fibrosis bronchial epithelial cells; format: cell-based
Procedure: HBE cells were isolated from CF patient lung transplant tissue and grown in collagen coated flasks for one week. The cells were then passaged and seeded onto collagen coated Costar Transwell filters (0.33 cm2) and grown in DMEM/F12 media supplemented with 2% Ultroser G. Cells were grown at an air liquid interface and used 2 to 4 weeks after seeding:
Cells on the Transwell filters were mounted in modified Costar Ussing chambers and studied under Isc conditions. […] Isc was recorded for 100 minutes and then the apical bath fluid was exchanged with fresh buffer. Trypsin (100 BAEE units/mL) was added to the apical side and Isc recorded for 10 minutes. Amiloride (10 uM) was then added to the apical side and Isc was recorded for a further 10 minutes.
HBE cells were isolated from CF patient lung transplant tissue and grown in collagen coated flasks for one week. The cells were then passaged and seeded onto collagen coated Costar Transwell filters (0.33 cm^2) and grown in DMEM/F12 media supplemented with 2% Ultroser G. Cells were grown at an air liquid interface and used 2 to 4 weeks after seeding.
Cells on the Transwell filters were mounted in modified Costar Ussing chambers and studied under Isc conditions. […] Isc was recorded for 90 minutes and then amiloride (10 uM) was added and Isc was recorded for a further 10 minutes. The apical bath fluid was then exchanged with fresh buffer, and Isc was recorded for a further 15 minutes. Trypsin (1 uM) was added to the apical side and Isc recorded for 15 minutes. Amiloride (10 uM) was then added to the apical side and Isc was recorded for a further 10 minutes.

[4] = test system: ovine tracheal epithelial cells; assay: Short circuit current (Isc) in cultured ovine tracheal epithelial (OTE) cells; format: cell-based; settings: 100 ug/mL; over a 90 minute period; FIG. 24
Procedure: as §1, with “17),” for “17)”, “in OTE” for “on GPTE”, “OTE” for “GPTE”, “3-5” for “2-4”, “37°” for “370”
After a 20 minute equilibration period, transepithelial potential difference was then clamped to 0 mV using a WPI EVC 4000 voltage clamp. Ag/AgCl electrodes were used to monitor Isc. Once a stable baseline was achieved (typically 30 mins), cells were treated with amiloride (10 uM). Once a response to amiloride was obtained, it was washed out with KBR solution. After return to baseline, Bikunin (1-170) described in Example 17 (25, 50 or 100 ug/mL) or PBS was added. 90 minutes following agent treatment amiloride (10 uM) was again added.

human plasma kallikrein = biological target: T1, human plasma kallikrein (Homo sapiens, UniProt P03952); assay: Anti-protease activity before and after nebulization; format: biochemical
T1 construct: purchased Sigma (St. Louis, Mo.)
Procedure: The aim of this study was to assess the anti-protease activity of Bikunin (1-170) described in Example 17 following nebulization. All studies were performed with Bikunin formulated in phosphate buffered saline, pH 7.4 (137 mM NaCl, 3 mM KCl, 3 mM KH2PO4, 8 mM Na2HPO4, 0.02 g/L Tween 80).
Raindrop® Medication Nebulizer: Bikunin was aerosolized at concentrations of 1 and 3 mg/mL. The nebulizer cup was filled with 2.5 mL of Bikunin solution. Aerosolisation was performed at 7.35 L/min or 35 psi.
Collison Nebulizer: Bikunin was aerosolised at a concentration of 4.7 mg/mL. The nebulizer cup was filled with 2.5 mL of Bikunin solution. Aerosolisation was performed at 35 psi.
Aerosolised Bikunin was collected using a twin impinger (6.4 um mean aerodynamic particle cut-off size at 60 L/min through the system). The impinger works on the principle of liquid impingement and divided the aerosol into a non-respirable fraction (>6.4 um collected in Stage 1) and a respirable fraction (<6.4 um collected in Stage 2).
Bikunin activity was measured in vitro by its inhibition of human plasma kallikrein.

[5] = test system: human bronchial epithelial cell (HBE); settings: cited from earlier work
guinea pig trachea = assay: Tracheal potential difference in guinea pigs pretreated with LPS; format: in vivo; settings: 50 ug/mL topical instillation; guinea pigs pre-exposed to LPS; FIG. 25(b)
Procedure: Polymorphonuclear (PMN) leukocyte (neutrophil) dominated airway inflammation is often a feature of CF lung disease. In the guinea pig, exposure to an aerosol of E. coli lipopolysaccharide (LPS) induces a marked PMN influx in the bronchoalveolar Iavage fluid 24 hours post challenge. The aim of this study was to investigate the effect of Bikunin (1-170) described in Example 17 on tracheal potential difference in guinea pigs pre-exposed to an aerosol of LPS. Agents were delivered into the cephalad trachea by topical instillation. TPD was monitored for 60 minutes, 23 hours after exposure to LPS.
Bikunin (1-170) was formulated in Hank's Balanced salt solution (HBSS). Amiloride was obtained from Sigma Chemicals and formulated in HBSS. Vehicle control was HBSS. Hypnorm (Fentanyl citrate 0.315 mg/mL and Fluanisone 10 mg/mL) was obtained from Janssen Animal Health and Hypnovel (Midazolam 5 mg.mL) was obtained from Roche. […]
23.4 hours following LPS treatment, guinea pigs were anaesthetised with Hypnorm and Hypnovel and immobilised in a supine position. […] Rectal temperature was monitored with a thermistor probe.
20 minutes following induction of anaesthesia, Bikunin (50 ug/mL) or amiloride (100 uM) was topically instilled into the cephalad trachea. The tracheal agar electrode was then inserted into the cephalad trachea and tracheal potential difference was measured for 60 minutes. […]

T1 sequence (P03952 391-638 limits assumed): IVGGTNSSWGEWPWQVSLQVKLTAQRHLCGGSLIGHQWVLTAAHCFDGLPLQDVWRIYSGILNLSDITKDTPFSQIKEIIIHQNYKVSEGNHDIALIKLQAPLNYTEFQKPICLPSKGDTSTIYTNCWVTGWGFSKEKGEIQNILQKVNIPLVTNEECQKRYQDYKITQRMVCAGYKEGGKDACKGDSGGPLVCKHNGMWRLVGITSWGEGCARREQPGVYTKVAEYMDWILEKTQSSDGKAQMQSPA
T1 sequence (P03952 20-390 partner limits assumed): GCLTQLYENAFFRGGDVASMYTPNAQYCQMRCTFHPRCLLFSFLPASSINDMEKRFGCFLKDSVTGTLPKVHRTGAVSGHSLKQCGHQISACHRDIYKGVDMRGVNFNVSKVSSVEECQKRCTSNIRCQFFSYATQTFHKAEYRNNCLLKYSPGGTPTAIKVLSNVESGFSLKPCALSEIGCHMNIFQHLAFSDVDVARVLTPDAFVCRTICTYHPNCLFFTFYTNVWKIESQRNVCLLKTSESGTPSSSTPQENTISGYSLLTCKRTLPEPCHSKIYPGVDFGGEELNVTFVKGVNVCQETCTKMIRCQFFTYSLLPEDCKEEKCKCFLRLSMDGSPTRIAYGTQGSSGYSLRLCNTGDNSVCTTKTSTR

B1: CHO Bikunin (1-170): Glycosylated placental bikunin (1-170), SEQ ID NO: 52, expressed in Chinese hamster ovary cells (Example 17) (protein, listed as Homo sapiens)
chain: ADRERSIHDFCLVSKVVGRCRASMPRWWYNVTDGSCQLFVYGGCDGNSNNYLTKEECLKKCATVTENATGDLATSRNAADSSVPSAPRRQDSEDHSSDMFNYEEYCTANAVTGPCRASFPRWYFDVERNSCNNFIYGGCRGNKNSYRSEEACMLRCFRQQENPPLPLGSK
modifications: glycosylated, CHO-expressed
In the case of B1, the sodium current [1] is reported as “inhibited sodium current”, the “Forskolin induced cAMP-mediated chloride secretion and monolayer resistance” value ([2]; 70 nM) is reported as “unaffected” and the sodium current ([2]; 70 nM) is reported as “decreases sodium current”. The sodium current ([2]; 70 nM, listed as Bukinin) was “inhibited sodium current”, the “inhibition of Na+ Isc” value ([2]; 5 ug.ml−1, normal HBE cells, n=6, further study) was 84% and the “sodium short circuit current” value ([2]; 5 ug/mL, FIG. 20) was “decrease sodium short circuit current”. For the same molecule, the Isc ([3]; 1 ug/mL) was “inhibited”, the Isc ([3]; 10 ug/mL in PBS, over a 90 minute period, FIG. 28(a)) was “inhibited Isc” and the Isc ([3]; 10 ug/mL in PBS, over a 90 minute period, FIG. 28(a), listed as CHO expressed Bikunin (1-170)) was “decreases sodium current”. For the same molecule, the Isc ([3]; 1, 5, and 10 ug/mL, at 90 minutes after apical application, FIG. 28(b)) was “decreases sodium current”, the Isc ([3]; 1, 5, and 10 ug/mL, at 90 minutes after apical application, FIG. 28(b), listed as bikunin (1-170)) was “inhibited Isc” and the sodium current [4] was “significantly inhibited sodium current”. The Ki (human plasma kallikrein; Collison nebulizer, 4.7 mg/mL, read-out: Activity (Ki), post-nebulization) was 0.45 nM, the Ki (human plasma kallikrein; Collison nebulizer, 4.7 mg/mL, read-out: Activity (Ki), pre-nebulization) was 0.27 nM and the stability to aerosolization (human plasma kallikrein; Raindrop and Collison nebulizers) was “stable to aerosolization and retained its anti-protease activity”. It also gave a Ki (human plasma kallikrein; Raindrop nebulizer, 1 mg/mL, read-out: Activity (Ki), post-nebulization) of 0.76 nM, a Ki (human plasma kallikrein; Raindrop nebulizer, 1 mg/mL, read-out: Activity (Ki), pre-nebulization) of 0.47 nM and a Ki (human plasma kallikrein; Raindrop nebulizer, 3 mg/mL, read-out: Activity (Ki), post-nebulization) of 0.62 nM. For the same molecule, the Ki (human plasma kallikrein; Raindrop nebulizer, 3 mg/mL, read-out: Activity (Ki), pre-nebulization) was 0.52 nM, the “inhibition of the baseline Isc” value ([5]; 70 nM, in 90 minutes (McAulay et al 1998)) was 58% and the “inhibition of Na+ Isc” value ([5]; 1.5 ug.ml−1: 70 nM, normal HBE cells, n=5-8 (McAulay et al 1998)) was 54%. The tracheal potential difference (guinea pig trachea) was “significantly inhibited potential difference”.
